# T1: PTK7 (protein tyrosine kinase 7), recombinant (UniProt Q13308 Q13308:31-704)
# T1 sequence: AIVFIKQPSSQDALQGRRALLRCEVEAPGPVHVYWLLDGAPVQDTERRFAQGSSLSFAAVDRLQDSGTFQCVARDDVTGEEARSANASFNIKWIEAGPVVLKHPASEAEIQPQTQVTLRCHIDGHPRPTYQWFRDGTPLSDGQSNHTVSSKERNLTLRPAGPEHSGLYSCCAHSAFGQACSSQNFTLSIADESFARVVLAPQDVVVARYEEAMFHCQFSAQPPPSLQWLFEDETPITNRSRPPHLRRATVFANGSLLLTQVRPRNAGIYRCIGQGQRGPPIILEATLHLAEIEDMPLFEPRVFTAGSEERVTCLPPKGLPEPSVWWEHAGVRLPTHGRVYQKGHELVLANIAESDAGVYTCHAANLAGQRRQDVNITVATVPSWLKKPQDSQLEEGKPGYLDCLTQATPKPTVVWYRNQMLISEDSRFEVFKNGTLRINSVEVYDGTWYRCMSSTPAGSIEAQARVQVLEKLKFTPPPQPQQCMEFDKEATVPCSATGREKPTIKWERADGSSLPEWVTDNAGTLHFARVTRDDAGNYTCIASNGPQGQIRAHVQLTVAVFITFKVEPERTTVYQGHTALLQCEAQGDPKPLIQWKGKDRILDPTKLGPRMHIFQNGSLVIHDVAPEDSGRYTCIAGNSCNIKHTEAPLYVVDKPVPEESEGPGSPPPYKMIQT
# How the values were obtained:
# [1] = target: thrombin (UniProt P00734;P00734 P00734:328-363,P00734:364-622); assay: FP
# [2] = target: T1, PTK7 (protein tyrosine kinase 7), …
Binder,Kd [1],binding result [2]
GGTTGGTGTGGTTGG (ssDNA) [TBA unmodified],220 nM,
"ATCTAACTGCTGCGCCGCCGGGAAAATACTGTACGGTTAGA (ssDNA, T27 conjugated to pyridinium oxime catalyst PyOx) [sgc8c(27)-PyOx]",,binds
